# Reference: the domain aggregation screens of Martell et al. (2025)
# Assay: soluble fraction after stress (log2 fold change); higher = more stays soluble; pooled small domains, quantitative proteomics
# Conditions: stress: 75 degC
# 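Also: 20 min heating vs room temperature control held 20 min.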
row,Sequence,soluble fraction (log2)
1,HMDNFQFIGYSQQQGQIAVAWIKSLDNGRLVRVEVSDSLEGWRVSDISAQGVNLTKGQQWLMLKRL,-1.74
2,HMDNIGKTLGQNQTRQYKVAYAEAAKLPAIIMGLVPLPKPPVVDERLRSLYVTATPEQHRQIETLMNRI,-0.114
3,HMDNITIYSSNGKIYVNAIGGEKIELFNITGQKVAEKVAVSGINVLDAVYDITLVKVGSKVVKVV,-2.36
4,HMDNLATRILKELNNNDGFLPLSDKSQPEAIYQAFGISKKSYKTAIGTLYKKRLITISENGIQLTD,-0.67
5,HMDNLSQMQERILEFIIRSKDQSGYTPSLREIGDEVGLKAVSSVKYQLEQLKDAHYISFDANTARAIRVLI,-1.68
6,HMDNMFVEERQALIYEELQSNGRVRVKDLSKKFNVSEDLIRKDLNVLEKEGKLRKIYGGAVLAK,0.237
7,HMDNNNQAAFMGALNSLKEYAKVNGNIVTKQDVESYFKDLGLDDSKYQMITGYLLANDITVKG,0.181
8,HMDNQYGVYSDEKNNVEIHWKRIDHPSVAKDHLDIEAYQNGKRVDINNQQADHYRYLINQEMNE,0.201
9,HMDPAFAQHHDRALSILHSRGYEVHDSDTDLHWARPVLEFEAYKGSLEYKIVMSYPDLNIIEERVD,-0.906
10,HMDPASYEARLSTLREQGAQQLDPVRFQYLATLAQRLPTQTPGVALILANKLRAGLSDYEQRLSEAGS,-0.0569
11,HMDPDAIVSKGQLGALNNAIGRFIAQGGSQTVVDKGIAKRNPNAKKPADLTNSQAESLEAAILKILNG,0.73
12,HMDPLGALSDRERQVLALIGQGHGLQAIADQLGVSYKTAANTSSALKKKLGVDGINGLMKFALDSG,-0.443
13,HMDPLGGFTKGDVDMDGRVAVNDAVMVLKNAIKLMELDTQQLMLADADNDGKITVNDAVMILKKAIKLID,-0.149
14,HMDPTLFRLNILEGLGLEKKNLTSEEQEQLRFLYEHFSMKEILMTIDYIKKLNLEKSIVNLYRLMQHP,-0.823
15,HMDPTVEENKLNPRDLLIIQRVKEGRTNKEIAEELNVAEITVKKQLSSLYQRYKVHNRNQLLLALD,-0.285
16,HMDPVQLEVIKKLNLLNAQKPKDIYALRDVLSEMFPQSDIRLLLKELLDKGYIYWNGHEVIYSHEMF,-0.272
17,HMDPYEYQLELEKLINNATELNKKYNYDPLKDKILAADAVKNSLETYVLQNYIVALENEIKQTLNQYQIL,-0.685
18,HMDQNDYMLTRIRNGQMRNKVSVSMPASKIKSAIAAVLKDEGYIENFALNDSSGKPSLIVNLKYYAGQPV,-0.0681
19,HMDQPVIDVREFGARGDGKQDDAPAIQAAVRLAEQLGGGRVVVPATREFYLLGSTIRIRGHHVTLTGPGAR,0.0456
20,HMDRAIAAHLEARVRDALKQLSPEQTRVIELFFFDNKTHAEIENDLKIPLGTVKSRLRLALNKLRASL,-2.55
21,HMDRASGEEEALKEAEDAISRVWEFDGPVELNPQNSYLRRLQHELASRYNVKSVSIGQEPNRRVVYYK,-0.163
22,HMDRDPAEAGYDDGYLSGNTDGMNNDERATYDESSQYPTPDERQSYAAAYRRGYAAGFADGRKQAV,-0.000174
23,HMDREIVEAIVPLEAAGKRFDAALAEMFPEFSRSRLTEWIKAGDALLAGEIVKPKVSVRGGEAVSLSIRV,-0.765
24,HMDRELVALVQKALSQLSEQQRRIVELHVMEGMKYLEIADLLQLSENTVRTHLKRAYKILRENH,-1.98
25,HMDRERFIKLGREIARAAFENVGKKATDKVLNSAAKKLRLEDGDEVLARLGSAEIEARSVVQAVYPDLI,0.286
26,HMDRKARRKYIEQVVNDRKIETQEELLKLLTEAGFETTQATISRDIHALNIVKANDGDGHTHYVQLH,-0.0596

row,Sequence,soluble fraction (log2)
1,HMDRKEEIIIVTLKLASQIGLSNVSMEQIAKQVGIKKPSLYNHFKSKDEIIDAMYEYLREKSKN,-2.16
2,HMDRMIPPYGLEVTYDKTTHIIFPSAVRYVDLGSPNLIAGKADGSENVIRVKATRKNFREETNMSVITE,0.152
3,HMDRPEPLYIVNGKEVQTLEEAFELGRTLGSAKKGTQVRLRRLLPEEGVEKYGEKGRNGVFEFMVSA,0.269
4,HMDRPLRTKEHFARFAGEQVVVKTSSPIDGRSSFTGTLEGMEGDDVIVEVDGSRIAIGYSLIKRAHVVG,0.00178
5,HMDRRFFVAEENYKRLDVFLSERMEEFTRSRIKKLIDEGHVELNGKSAKAGAEIRPGDEVAAEIPEVKE,0.195
6,HMDRRIDIANAVKTALGSLPERQKTAIVLVHYEGFSGAETAKLLGISVEAVESLLARARRNLRQTLGP,-0.471
7,HMDRTIGEIGLVTETIDSTLESGRVMVDGLSWKARTSDNTVLEAGTRVQVKEIHGVTLTVEKA,0.292
8,HMDRTLTYTVSIEESDLRADQFLSRRGFSSHLLTRLRKNMEHLLINGTPSRTNTHLHEGDILTVHIVEE,-2.19
9,HMDRWTPLIVAVLIEGSHRFGELRSAIGGITPKVLTETLRSMERDGLVTRDQVPGVPPRVDYALTPLG,-0.462
10,HMDRYVDEEKRFYWRSGEAYLNFSKYKDRSLAEVATVDPGFLRWMMEADFSPETKQIVERALEGEFPQKK,-0.29
11,HMDSADADLLRRIEDLLSSRRSVIREARLADMLGVPRDQVARALDLLQERGVIGLTTDSGMKRIAFRRN,-0.356
12,HMDSAQLARWAATILAQNGRKITPSTMNLFLERVGDDMENIRMELEKLISYTMGSEVVTAEDVKVITTVQ,-1.01
13,HMDSAVLQKHLVKLIELHAPIKARNLAKILADEFGKHVDRSAVNSALYSLKAERKVEVNSSYEWSLD,-2.25
14,HMDSDRAARLSSLTPQQFRVLRMVSEGQLNKQIAYQLNISEATVKSHVSAILQKLGVNSRTQAVILATRLD,-3.37
15,HMDSEQLSGLVNMGFSVYQAKTALEMFDNDIERAANYL,-0.478
16,HMDSERTALLSSDRTSFTAREAALLIGVSQRDIYRMIEDELLDSFTVGKMIRIRRSALEWWLS,-2.93
17,HMDSFEEGTYRKNQRGFGFVKIENQEDEIFISKENSLNALNGDRVIVEIIEDKDRTKRAEGKIKKILKHE,0.531
18,HMDSGLLSAREREVAGLVLSGMTYAEIGEAIFISPRTAEHHIARIRRRLGATSRTDLIAKLQAIVGID,-3.41
19,HMDSGVPEWLASALRASPVAWKNFLALPPSHQRRYVGWISSARRDETRNRRIAEAISLLVEHKRLG,-2.18
20,HMDSIKDQIYQILKEDILTGELRSGEQLVEQTIAARFNTSRSPVREAIKQLTGDGLVINITNKGTFVK,0.227
21,HMDSISEQIYSIIKEEILLAKRKPGEQINPRKLADEFETSVMPIRDALNQLANEGLVIRKPRVGFFVR,-0.501
22,HMDSITEADLLRWAHALSGIARTGLGFTESRYERERYEEVLAVAADILAASSRSHDRAALVDEWLKMVGV,-2.03
23,HMDSKKNLLGKNGLAFTTLRPAGTVLIDGQRHDVISNGDMIPKGATVRVIAIEGASITVEALPD,0.0814
24,HMDSMATVPDLVGKTEDEAKALANDAHLGVQMAGEEASDQEKGKISRQETAAGTQVAEYTTVKYWVSTGTQ,0.763
25,HMDSPALAIPSSAILRDGLEHIFFRQDPSDPDQVIRVVADLGLSDGRWTVVRSGLERTDQVVLSGA,0.181
26,HMDSQKKNETLSSTADEIIKNYAGKRDLSEESMEQLEQFQKDMRGADVNIFTAAQIRMLDQIFQENLH,0.221

row,Sequence,soluble fraction (log2)
1,HMDSSLVWVDYLLGSKLTKLNSSNELTGPGASAKTIGAFLGENKQSFDLYIESVHNARDTYSDILTHGT,-0.186
2,HMDSSSYSAKVGTLIQETRQARGMTQAQLAQALGTSQSAINRIEKGGQNISLDMLNRISEVLSSQIVTLNP,-0.0411
3,HMDSVAKSFLAEIERFLETAGLEPTTLGKQALGDPSFVFDLRKGRSPSTRTIGKLRVWMQQQNALS,-1.34
4,HMDSVTLGISFNGKTRFTLDFPADAAAADIEKAALEAEQSQRYLEGMTVAKVIVVPGRIVNIVLK,-2.23
5,HMDSVTMYATTGVNVRSGPSTSYSIVGGLDRGDKVTRIGTSGNWTKVVWGNGSAYVFSKYLQTGY,-3.04
6,HMDTAEQNWRLRGKLVTLGLNARQIRMALASHAPRYLEDNIAVVERDLAAGKVRNLPAYLLAALREDYRP,-1.86
7,HMDTEIGDILALRQIMELLDEKDRQLIIMRYFQGLTQSVTAKNLNMTQVQVSRREKKLLTFMREQLL,-0.702
8,HMDTEVVMINVVGMNIDKAKNSLNHKNILYKISYQDVSEGENNVVLKQSISSNTKIKKGQVVSLVVGKLN,-1.42
9,HMDTFEITVEESDIDKRIDLFLAGNLESFSRSYIQDLIKKGKATISGKPVKANYRLREGDSVVLSIPKPK,-0.209
10,HMDTGKLQSLVGSRGVAHTVLRPSGKVMIGDDVYPAVAETGFIPRGTAIVVRREEQGQLYVVEARK,-0.318
11,HMDTGPISGQVEADRVEVHGHLDGKISAQNVVVGQTGVVKGDIEFGENLRTEEGADIEGYIK,0.0611
12,HMDTGPSFATRRQEAFNALTQIAASNKEFMNVAGDVLWKVADFPEAQILAQRWRRIIPPNVLGEA,-0.465
13,HMDTIAEFIAELTPLEQKVFHVYYEKGQSLKDTAQQAEITSTSARGALDRIRAKGRHFHLAVILFIG,-0.7
14,HMDTINEYERNILSLITSKPGISAVQIAADTDKSIITAKRGIKTLVDGKLIEYRGSKKTGGYFLLTQS,-0.41
15,HMDTIYMVVAKNIKYYRLIKSMSKKDLAEAVNVTPMAISNYENGKRKPEIDILKKIANVLGVRVVDFLTVR,-4.45
16,HMDTKLFNYGVGKHAYISWNEGGKRTAYIGFGNDGADVLTINNVKQGGSLGIYKDKITLNSQTVLTD,-0.038
17,HMDTLHGRILEEFSRKIVDGTWPPGFSLPKETELADQYGVSRMTMNKVLTRLASDGFVIRRKRSGTVVAQP,-1.34
18,HMDTLTRAMVWTIIARAEGVDTTGGATWYAKAQEWVTAKGISDGENPNAAITRQELVTMLYRLAGEPAV,-3.56
19,HMDTMQQESMDTKSILATALMELTSRKNFAKITIADITHVSGFNRQTFYYHFRDKYELLSWIY,-0.0387
20,HMDTNRIIGNKIYQLRRSINMTQQELAEKVGISVTFLSEIENGRKSMSVDTLIKLSKGLQVSLDTIVF,-4.31
21,HMDTPVYYYVNGNGVRMRKDASLESDILILLYKGTKVEYVDVKGEWIKVKYNNEIGYIRNDLLSAEMPD,-0.784
22,HMDTQITPNKAKEIALAHAGVTEAAANFKKIKLDNKNGKSIYEIEFIANKSRYEFIVDAKNGSIIKFEK,-0.378
23,HMDTRKEREIALYEAALRLIASGVNPAAMKVQQIADEAGIGKGTVYEYFASKEEILHGMALH,-0.218
24,HMDTTLFGLFQNVILTQEDYEELSRTIVEDLDGLIDRLSAYMTSTGKTYKNHKATLLSWYLQDEKKFK,-1.78
25,HMDTVEALTEQLKKLDKRGEGQIPAPEFKQYMMNMGGKMTAEELDEMMKVADPGKEGVVNIAEFADAL,0.313
